Source: publication doi:10.1101/2025.07.09.663820 (bioRxiv, 2025)
Each block holds one molecule with its values, some of them ahead of it.

Legend:
[1] = biological target: CHIP13 extracellular domain (residues 33-253) (Lotus japonicus); assay: SEC
[2] = biological target: CHIP13 extracellular domain (residues 33-253) (Lotus japonicus, UniProt D3KU00, N-glycans (one on N143))

stoichiometry N [1]: 2
Molecule: CHIP13 extracellular domain (residues 33-253) (domain or fragment)

Kd [2]: 8.1 nM
B1: Nb-aCHIP13 (VHH)
VHH: QLQLVESGGGLVQAGGSLRLSCATSGTTFRLNTMGWYRQAPGKQRELVATISRDFKTNYADSVKGRFTISRDNAKHTVDLQMNSLTPEDTAVYYCLVRDQREWYGPEYDNWGRGTQVTVSS
